Test results from patent US20220267475A1 (published 2022).

Experiments:
[1] = target: T1, TIGIT antigen expressed on CHO-K1 cells (UniProt Q495A1 22-244); experiment: flow cytometry
T1 chain: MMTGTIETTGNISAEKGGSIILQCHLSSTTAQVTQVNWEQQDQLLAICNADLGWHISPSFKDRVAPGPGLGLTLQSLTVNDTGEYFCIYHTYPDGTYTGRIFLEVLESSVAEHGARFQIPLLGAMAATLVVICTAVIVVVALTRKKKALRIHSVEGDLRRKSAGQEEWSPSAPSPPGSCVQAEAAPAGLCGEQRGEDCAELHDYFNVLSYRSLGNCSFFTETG

[2] = target: CD47 antigen expressed on CHO-K1 cells (UniProt Q08722 19-323); experiment: flow
Sequence of CD47 antigen expressed on CHO-K1 cells (Q08722 19-323): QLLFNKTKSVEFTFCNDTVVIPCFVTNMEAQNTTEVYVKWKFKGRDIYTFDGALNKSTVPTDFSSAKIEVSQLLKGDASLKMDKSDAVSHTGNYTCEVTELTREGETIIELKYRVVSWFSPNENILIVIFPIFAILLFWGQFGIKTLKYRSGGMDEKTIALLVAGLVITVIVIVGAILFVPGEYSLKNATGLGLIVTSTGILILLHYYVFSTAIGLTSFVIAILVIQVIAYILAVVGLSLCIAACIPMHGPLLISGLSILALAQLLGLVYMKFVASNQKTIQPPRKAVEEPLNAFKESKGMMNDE

B1: TIGIT-G9-LC (bispecific antibody)
heavy: not shown
light: EIVLTQSPATLSLSPGERATLSCRASENVGTYISWYQQKPGQAPRLLIYGASNRYTGIPARFSGSGSGTDFTLTISSLEPEDFAVYYCGESYGHLYTFGGGTKVEIKRTVAAPSVFIFPPSDEQLKSGTASVVCLLNNFYPREAKVQWKVDNALQSGNSQESVTEQDSKDSTYSLSSTLTLSKADYEKHKVYACEVTHQGLSSPVTKSFNRGECGGGGSGGGSEVQLVESGGGLVQPGGSLRLSCAASGYKYGVYSMGWFRQAPGKGLEGVSAICSGGRTTYSDSVKGRFTISRDNSNQILYLQMNSLRAEDTAVYYCAARPLWTGDCDLSSSWYKTWGQGTLVTVSS
- EC50 [1]: 0.658 nM

B2: TIGIT-E-LC (bispecific antibody)
heavy: not shown
light: EIVLTQSPATLSLSPGERATLSCRASENVGTYISWYQQKPGQAPRLLIYGASNRYTGIPARFSGSGSGTDFTLTISSLEPEDFAVYYCGESYGHLYTFGGGTKVEIKRTVAAPSVFIFPPSDEQLKSGTASVVCLLNNFYPREAKVQWKVDNALQSGNSQESVTEQDSKDSTYSLSSTLTLSKADYEKHKVYACEVTHQGLSSPVTKSFNRGECEPKSSDKTHTSPPSPEVQLVESGGGLVQPGGSLRLSCAASGYKYGVYSMGWFRQAPGKGLEGVSAICSGGRTTYSDSVKGRFTISRDNSNQILYLQMNSLRAEDTAVYYCAARPLWTGDCDLSSSWYKTWGQGTLVTVSS
- EC50 [1]: 0.334 nM

B3: anti-CD47 monoclonal antibody (antibody, V domains shown)
VH: EVQLVQSGAEVKKPGSSVKVSCKASGYSFTHHWIHWVRQAPGQGLEWMGMIDASDSETRLSQKFKDRVTITADKSTSTAYMELSSLRSEDTAVYYCARLGRYYFDYWGQGTTVTVSS
VL: EIVLTQSPATLSLSPGERATLSCRASENVGTYISWYQQKPGQAPRLLIYGASNRYTGIPARFSGSGSGTDFTLTISSLEPEDFAVYYCGESYGHLYTFGGGTKVEIKR
- EC50 [2]: 0.00843 nM
- EC50 [1]: ~0.443 nM

B4: TIGIT-G9-LN (bispecific antibody)
heavy: not shown
light: EVQLVESGGGLVQPGGSLRLSCAASGYKYGVYSMGWFRQAPGKGLEGVSAICSGGRTTYSDSVKGRFTISRDNSNQILYLQMNSLRAEDTAVYYCAARPLWTGDCDLSSSWYKTWGQGTLVTVSSGGGGSGGGSEIVLTQSPATLSLSPGERATLSCRASENVGTYISWYQQKPGQAPRLLIYGASNRYTGIPARFSGSGSGTDFTLTISSLEPEDFAVYYCGESYGHLYTFGGGTKVEIKRTVAAPSVFIFPPSDEQLKSGTASVVCLLNNFYPREAKVQWKVDNALQSGNSQESVTEQDSKDSTYSLSSTLTLSKADYEKHKVYACEVTHQGLSSPVTKSFNRGEC
- EC50 [1]: 0.155 nM

B5: TIGIT-E-LN (bispecific antibody)
heavy: not shown
light: EVQLVESGGGLVQPGGSLRLSCAASGYKYGVYSMGWFRQAPGKGLEGVSAICSGGRTTYSDSVKGRFTISRDNSNQILYLQMNSLRAEDTAVYYCAARPLWTGDCDLSSSWYKTWGQGTLVTVSSEPKSSDKTHTSPPSPEIVLTQSPATLSLSPGERATLSCRASENVGTYISWYQQKPGQAPRLLIYGASNRYTGIPARFSGSGSGTDFTLTISSLEPEDFAVYYCGESYGHLYTFGGGTKVEIKRTVAAPSVFIFPPSDEQLKSGTASVVCLLNNFYPREAKVQWKVDNALQSGNSQESVTEQDSKDSTYSLSSTLTLSKADYEKHKVYACEVTHQGLSSPVTKSFNRGEC
- EC50 [1]: 0.0757 nM

B6: TIGIT-G9-HN (bispecific antibody)
heavy: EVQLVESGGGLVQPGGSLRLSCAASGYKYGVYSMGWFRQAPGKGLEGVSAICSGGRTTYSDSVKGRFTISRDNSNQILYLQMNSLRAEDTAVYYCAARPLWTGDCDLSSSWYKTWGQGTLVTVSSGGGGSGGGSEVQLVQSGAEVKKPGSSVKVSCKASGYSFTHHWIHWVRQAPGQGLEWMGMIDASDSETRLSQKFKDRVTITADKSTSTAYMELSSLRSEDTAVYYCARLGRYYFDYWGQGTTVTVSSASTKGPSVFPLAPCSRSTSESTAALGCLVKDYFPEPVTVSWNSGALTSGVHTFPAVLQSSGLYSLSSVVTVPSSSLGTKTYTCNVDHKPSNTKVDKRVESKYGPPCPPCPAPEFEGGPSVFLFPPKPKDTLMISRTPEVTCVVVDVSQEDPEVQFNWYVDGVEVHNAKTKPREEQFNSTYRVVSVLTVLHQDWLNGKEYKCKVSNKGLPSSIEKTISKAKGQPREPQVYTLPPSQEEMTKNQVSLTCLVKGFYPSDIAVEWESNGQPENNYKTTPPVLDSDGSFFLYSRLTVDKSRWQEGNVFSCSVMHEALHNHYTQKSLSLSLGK
light: EIVLTQSPATLSLSPGERATLSCRASENVGTYISWYQQKPGQAPRLLIYGASNRYTGIPARFSGSGSGTDFTLTISSLEPEDFAVYYCGESYGHLYTFGGGTKVEIKRTVAAPSVFIFPPSDEQLKSGTASVVCLLNNFYPREAKVQWKVDNALQSGNSQESVTEQDSKDSTYSLSSTLTLSKADYEKHKVYACEVTHQGLSSPVTKSFNRGEC
- EC50 [2]: 0.852 nM
- EC50 [1]: 0.168 nM

B7: TIGIT-E-HN (bispecific antibody)
heavy: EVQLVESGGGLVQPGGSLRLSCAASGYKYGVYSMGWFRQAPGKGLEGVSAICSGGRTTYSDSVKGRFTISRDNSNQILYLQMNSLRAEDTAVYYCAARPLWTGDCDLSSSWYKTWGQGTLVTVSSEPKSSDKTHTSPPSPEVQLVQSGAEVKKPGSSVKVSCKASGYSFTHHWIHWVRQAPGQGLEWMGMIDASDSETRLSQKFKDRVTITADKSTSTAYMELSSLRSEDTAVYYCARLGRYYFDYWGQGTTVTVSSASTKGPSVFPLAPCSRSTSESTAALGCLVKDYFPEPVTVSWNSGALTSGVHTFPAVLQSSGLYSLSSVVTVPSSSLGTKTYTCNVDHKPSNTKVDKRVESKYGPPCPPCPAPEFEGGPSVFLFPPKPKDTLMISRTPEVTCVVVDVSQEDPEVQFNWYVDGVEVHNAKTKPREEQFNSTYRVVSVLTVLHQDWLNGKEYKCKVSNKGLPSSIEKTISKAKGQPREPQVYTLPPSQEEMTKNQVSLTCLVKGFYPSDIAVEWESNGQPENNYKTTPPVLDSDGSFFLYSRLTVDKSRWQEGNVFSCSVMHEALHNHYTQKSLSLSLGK
light: EIVLTQSPATLSLSPGERATLSCRASENVGTYISWYQQKPGQAPRLLIYGASNRYTGIPARFSGSGSGTDFTLTISSLEPEDFAVYYCGESYGHLYTFGGGTKVEIKRTVAAPSVFIFPPSDEQLKSGTASVVCLLNNFYPREAKVQWKVDNALQSGNSQESVTEQDSKDSTYSLSSTLTLSKADYEKHKVYACEVTHQGLSSPVTKSFNRGEC
- EC50 [2]: 0.65 nM
- EC50 [1]: 0.132 nM

B8: TIGIT-G9-HC (bispecific antibody)
heavy: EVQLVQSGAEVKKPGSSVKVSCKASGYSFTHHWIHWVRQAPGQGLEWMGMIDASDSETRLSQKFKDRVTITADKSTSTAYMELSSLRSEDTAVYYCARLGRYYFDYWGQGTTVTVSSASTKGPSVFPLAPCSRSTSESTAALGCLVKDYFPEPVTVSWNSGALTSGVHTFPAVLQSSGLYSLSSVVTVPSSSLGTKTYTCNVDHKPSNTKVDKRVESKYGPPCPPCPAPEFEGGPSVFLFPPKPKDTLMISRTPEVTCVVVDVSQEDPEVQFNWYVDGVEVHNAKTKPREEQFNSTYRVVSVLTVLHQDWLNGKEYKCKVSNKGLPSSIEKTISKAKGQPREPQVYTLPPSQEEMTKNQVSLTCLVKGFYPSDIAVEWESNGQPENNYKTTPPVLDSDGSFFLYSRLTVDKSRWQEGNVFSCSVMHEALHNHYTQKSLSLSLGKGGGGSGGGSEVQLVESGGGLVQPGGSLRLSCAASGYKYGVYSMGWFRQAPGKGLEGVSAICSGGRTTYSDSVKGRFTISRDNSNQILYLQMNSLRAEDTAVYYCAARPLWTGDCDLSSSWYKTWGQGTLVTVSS
light: EIVLTQSPATLSLSPGERATLSCRASENVGTYISWYQQKPGQAPRLLIYGASNRYTGIPARFSGSGSGTDFTLTISSLEPEDFAVYYCGESYGHLYTFGGGTKVEIKRTVAAPSVFIFPPSDEQLKSGTASVVCLLNNFYPREAKVQWKVDNALQSGNSQESVTEQDSKDSTYSLSSTLTLSKADYEKHKVYACEVTHQGLSSPVTKSFNRGEC
- EC50 [2]: 0.686 nM
- EC50 [1]: 0.429 nM

B9: TIGIT-E-HC (bispecific antibody)
heavy: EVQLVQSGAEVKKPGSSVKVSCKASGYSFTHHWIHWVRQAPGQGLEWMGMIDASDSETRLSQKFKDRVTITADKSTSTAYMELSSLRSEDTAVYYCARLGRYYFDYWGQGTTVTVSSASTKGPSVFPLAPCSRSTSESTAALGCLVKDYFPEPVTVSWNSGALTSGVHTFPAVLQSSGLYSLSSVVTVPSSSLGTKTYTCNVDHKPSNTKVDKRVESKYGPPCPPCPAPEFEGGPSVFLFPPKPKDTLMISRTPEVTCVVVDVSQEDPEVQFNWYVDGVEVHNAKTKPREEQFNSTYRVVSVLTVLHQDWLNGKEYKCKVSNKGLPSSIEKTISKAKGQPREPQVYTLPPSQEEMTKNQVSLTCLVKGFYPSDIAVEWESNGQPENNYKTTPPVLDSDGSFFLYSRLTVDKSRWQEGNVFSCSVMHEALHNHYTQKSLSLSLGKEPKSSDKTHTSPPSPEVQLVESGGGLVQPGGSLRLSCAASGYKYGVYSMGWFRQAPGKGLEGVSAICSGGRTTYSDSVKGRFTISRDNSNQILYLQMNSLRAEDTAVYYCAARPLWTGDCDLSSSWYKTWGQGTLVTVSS
light: EIVLTQSPATLSLSPGERATLSCRASENVGTYISWYQQKPGQAPRLLIYGASNRYTGIPARFSGSGSGTDFTLTISSLEPEDFAVYYCGESYGHLYTFGGGTKVEIKRTVAAPSVFIFPPSDEQLKSGTASVVCLLNNFYPREAKVQWKVDNALQSGNSQESVTEQDSKDSTYSLSSTLTLSKADYEKHKVYACEVTHQGLSSPVTKSFNRGEC
- EC50 [1]: 0.52 nM
